Assay: soluble on expression in E. coli; label from the status in PepcDB or PDB records

| Sequence | soluble on expression in E. coli |
| --- | --- |
| MAKATYACVECGYRTPKPLGRCPSCGSWESFQEVAPAPASRRAKPSPLPLLALSQVDEAEERRFSSGLSEVDRVLGGGFVTGEVVLLGGEPGVGKSTLLLEMAKRMPQRVYYVAGEESPAQIKLRAQRLGVKDLLLVRETRLEPLLALLEEDPPEVLFVDSVQTLEAGGSPGSLVAVREATSALVRFAKESGAAVVLVGHVTKEGVVAGPKSVEHAVDATLYLETAGPYRVLRSAKNRFGPVGEIGVFRMEEAGLLEVENPSEAFLKERPLGVPGSAVALALAGERALALEVQALAAKTPFPAPRRVVQGLDSRRVDVVLAVLERRLGLPLANLDIYVNLAGGLKVQDPGLDLAVALAVYSAVVGRPLPADLALVGEVGLAGEVRRVAGLERRLREGERAGFGRFLHPGNLKRLQEAVEAYLALEHHHHHH | not soluble |
| MAKDVKPTRKNLMQIEDRIELSERGHDTLEKKRDGLIMEFMDILDQAQDVREDLDGSYERAQRAINMARAMEGDVAVRGAAAALKEHPELTTQSKNIMGVVVPQIESSKVRKSLDERGYGVMGTSARIDEAAEAYEELLENIILAAEVETAMKKMLEEIETTKRRVNALEFKLLPDLYDNQEYIEQKLEEQEREEIFRMKKIKAKKEEEEDALAAEEEAEEEPEAVTADDAAALEHHHHHH | soluble |
| MAKEFQLTHIFKKVSEFKDGECRCGPLEEHFNVEWLLYINRKDDELAVFLGCNSLQGTEETTLSIYVELKFTLKNSIGTRVTKIAKCLLSNKSTESDFGLNKFIGWETLLKDYLIDDSIIIEAKIKITKMTGFPRKELRSFDESSEEYSDMIIAVGDRKFYVLKQLLASNSTHFQSLIPLDFEEMDCEGKSEITLPDINPSDFQCLLEVLYGEPAMDDENVEGILHSAHMYKMTKVIRNCEEFLSNKSEKPMRDKFKIAKQYQLESLKKSCLSKIQTIQDIKSAMAGDLSDMDATVVAALLEKSVTIEPPSKNGRPY | soluble |
| MAKESVKILQGKLDVKSLIDQLNAALSEEWLAYYQYWVGALVVEGAMRADVQGEFEEHAEEERHHAQLIADRIIELEGVPVLDPKKWFELARCKYDSPTAFDSVSLLNQNVSSERCAILRYQEIANFTNGKDYTTCDIAKHILAEEEEHEQDLQDYLTDIARMKESFLKK | soluble |
| MAKGDPKKPKGKMSAYAFFVQTCREEHKKKNPEVPVNFAEFSKKCSERWKTMSGKEKSKFDEMAKADKVRYDREMKDYGPAKGGKKKKDPNAPKRPPSGFFLFCSEFRPKIKSTNPGISIGDVAKKLGEMWNNLNDSEKQPYITKAAKLKEKYEKDVADYKSKGKFDGAKGPAKVARKKVEEEDEEEEEEEEEEEEEEDE | soluble |
| MAKGIPYGISDFSRLIDQNYYYVDKTHFIPQIEEIANYLFLIRPRRFGKSVFLTMMRAYYDISQKDRFEERFGNLWIGKHPTPLQGIYQVLYFDFSKANLGRGSLEDNFNNYCCIQLNDFFSTYREYYQGEKELEQIIASTEAATKLHWLEATARRLGHLLYLIIDEYDNFTNVILSEQGKNLFRDLTHASGFYREYFKQFKGMFERIFLMGVSPVTLDDLSSGYNIDWNISVDPHFNMMMGFSETDVREMFGYYQKEGMLKGDIDAMINEMKPWYDNYCFAEASLKTDPRMFNCDMTLYYLRHRVNFDASPKELIDKNIRTDYSKLKMLARLDHENVSGEDRMSTIEEIAAKGEILVNLHTSFPAEKIVETDNFRSLLYYYGLLTMCGTRGDRIVMCIPNNCVREQYFGFLREYYQQRKEVFLPHLKDLIDDMAFDGQWRPLFEYIALAYKENSAIRDAIEGEHNLQGFFKAYLALASYYLVQPELEMNYGYCDFFLLPDKSRYPDTAHSYILELKYLPRTATDKELEEQAEEGRGQLKQYSRDKKVTTISEGTALHCILLQFKGWELIKCEEVSPKC | not soluble |
| MAKHAPQLPIEVDSETGVWTTDALPMLYVPRHFFVNNHMGIEEVLGADAYAEILYKAGYKSAWHWCEKEAECHGLEGVAVFEHYMKRLSQRGWGLFEIERINLEEGTAEVRLRHSAFVYVYGKVNRKVDYMFTGWFAGAMDQILAARGSSLRTVAEQVYSGAEDGHEDGLFVVKPL | soluble |
| MAKIKLPIVTINAKGGAQYVVEGVEAVNALTQLENYPERGIRIKVDGKMTVITEGCLCSAAVTGEVEVDVPEIVCEEVECEPISNILPNPKNPTDPGENSKPEEKAGEK | not soluble |
| MAKIPVLEIFGPTIQGEGRVIGRKTMFVRTAGCDYRCSWCDSAFTWDGSAKEDIKLMTAEEIYDALLEIGGHRFNHVTISGGNPALIKGIQELVDLFEDKHIYTALETQGSRFQSWMTQIDDLTISPKPPSSGMKTNLEILDSVINQCTFHSLNLKVVIFDDADYDFAKLIHHRYPNIPFYLQVGNPYLDDNVDQHTDKLLERYEQLVDRVMQSSDMNHVYVLPQLHTLLWSNKKGV | not soluble |

Source: the DeepSol protein solubility set
